These results are taken from patent US20220119553A1 (Sanofi, published 2022).

T1: recombinant human IL4 (human, UniProt P05112 25-153)
T1 sequence (looked up): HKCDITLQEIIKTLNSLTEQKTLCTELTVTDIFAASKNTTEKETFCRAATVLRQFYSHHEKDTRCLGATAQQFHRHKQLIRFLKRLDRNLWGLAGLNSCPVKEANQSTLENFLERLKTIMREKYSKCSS

T2: human CD19 (ELISA antigen) (human, UniProt P15391 20-291, limits assumed)
T2 sequence (looked up): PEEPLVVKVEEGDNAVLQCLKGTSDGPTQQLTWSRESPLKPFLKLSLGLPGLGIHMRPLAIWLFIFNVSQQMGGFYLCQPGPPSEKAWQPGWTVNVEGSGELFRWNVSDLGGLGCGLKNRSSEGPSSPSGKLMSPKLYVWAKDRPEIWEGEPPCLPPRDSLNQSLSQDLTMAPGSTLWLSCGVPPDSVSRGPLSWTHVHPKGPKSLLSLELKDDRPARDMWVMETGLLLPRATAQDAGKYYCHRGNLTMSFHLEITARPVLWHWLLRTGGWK

B1: Binding Protein 5 (other)
heavy 1: QVQLVQSGAEVAKPGTSVKLSCKASGYTFTDYWMQWVKQRPGQGLEWIGTIYPGDGDTGYAQKFQGKATLTADKSSKTVYMHLSSLASEDSAVYYCARGDYYGSNSLDYWGQGTSVTVSSASTKGPSVFPLAPCSRSTSESTAALGCLVKDYFPEPVTVSWNSGALTSGVHTFPAVLQSSGLYSLSSVVTVPSSSLGTKTYTCNVDHKPSNTKVDKRVESKYGPPCPPCPAPEFLGGPSVFLFPPKPKDTLMISRTPEVTCVVVDVSQEDPEVQFNWYVDGVEVHNAKTKPREEQFNSTYRVVSVLTVLHQDWLNGKEYKCKVSNKGLPSSIEKTISKAKGQPREPQVYTLPPCQEEMTKNQVSLWCLVKGFYPSDIAVEWESNGQPENNYKTTPPVLDSDGSFFLYSKLTVDKSRWQEGNVFSCSVMHEALHNHYTQKSLSLSLGK
light 1: DIVMTQSHLSMSTSLGDPVSITCKASQDVSTVVAWYQQKPGQSPRRLIYSASYRYIGVPDRFTGSGAGTDFTFTISSVQAEDLAVYYCQQHYSPPYTFGGGTKLEIKRTVAAPSVFIFPPSDEQLKSGTASVVCLLNNFYPREAKVQWKVDNALQSGNSQESVTEQDSKDSTYSLSSTLTLSKADYEKHKVYACEVTHQGLSSPVTKSFNRGEC
heavy 2: QVQLVQSGAEVVKPGASVKVSCKASGYTFTSYYIHWVRQAPGQGLEWIGSIYPGNVNTNYAQKFQGRATLTVDTSISTAYMELSRLRSDDTAVYYCTRSHYGLDWNFDVWGKGTTVTVSSSQVQLVESGGGVVQPGRSLRLSCAASGFTFTKAWMHWVRQAPGKQLEWVAQIKDKSNSYATYYADSVKGRFTISRDDSKNTLYLQMNSLRAEDTAVYYCRGVYYALSPFDYWGQGTLVTVSSRTASTKGPSVFPLAPCSRSTSESTAALGCLVKDYFPEPVTVSWNSGALTSGVHTFPAVLQSSGLYSLSSVVTVPSSSLGTKTYTCNVDHKPSNTKVDKRVESKYGPPCPPCPAPEFLGGPSVFLFPPKPKDTLMISRTPEVTCVVVDVSQEDPEVQFNWYVDGVEVHNAKTKPREEQFNSTYRVVSVLTVLHQDWLNGKEYKCKVSNKGLPSSIEKTISKAKGQPREPQVCTLPPSQEEMTKNQVSLSCAVKGFYPSDIAVEWESNGQPENNYKTTPPVLDSDGSFFLVSKLTVDKSRWQEGNVFSCSVMHEALHNHYTQKSLSLSLGK
light 2: DIVMTQTPLSLSVTPGQPASISCKSSQSLVHNNANTYLSWYLQKPGQSPQSLIYKVSNRFSGVPDRFSGSGSGTDFTLKISRVEAEDVGVYYCGQGTQYPFTFGSGTKVEIKGQPKAAPDIQMTQSPSSLSASVGDRVTITCQASQNIYVWLNWYQQKPGKAPKLLIYKASNLHTGVPSRFSGSGSGTDFTLTISSLQPEDIATYYCQQGQTYPYTFGQGTKLEIKTKGPSRTVAAPSVFIFPPSDEQLKSGTASVVCLLNNFYPREAKVQWKVDNALQSGNSQESVTEQDSKDSTYSLSSTLTLSKADYEKHKVYACEVTHQGLSSPVTKSFNRGEC
B2: Binding Protein 17 (bispecific antibody, human IgG1, kappa, lambda)
heavy 1: not shown
light 1: DIQMTQSPASLSVSVGDTITLTCHASQNIDVWLSWFQQKPGNIPKLLIYKASNLHTGVPSRFSGSGSGTGFTLTISSLQPEDIATYYCQQAHSYPFTFGGGTKLEIKGQPKAAPSVTLFPPSSEELQANKATLVCLISDFYPGAVTVAWKADSSPVKAGVETTTPSKQSNNKYAASSYLSLTPEQWKSHRSYSCQVTHEGSTVEKTVAPTECS
heavy 2: not shown
light 2: not shown
notes: Bispecific trivalent (CODV-Fab) × Fab-IgG1 Fc; two IL4 sites, one IL13 site; also called IL4 × (IL13 × IL4); (anti-IL13 × anti-IL4) × anti-IL4
B3: Binding Protein 19 (bispecific antibody, human IgG1, kappa, lambda)
heavy 1: not shown
light 1: B2 light 1
heavy 2: not shown
light 2: not shown
notes: Bispecific trivalent (CODV-Fab) × Fab-IgG1 Fc; two IL4 sites, one IL13 site; also called IL4 × (IL4 × IL13); (anti-IL4 × anti-IL13) × anti-IL4
B4: Binding Protein 16 (bispecific antibody, human IgG1, kappa, lambda)
heavy 1: not shown
light 1: DIVLTQSPASLAVSLGQRATISCRASESVDSYGQSYMHWYQQKAGQPPKLLIYLASNLESGVPARFSGSGSRTDFTLTIDPVQAEDAATYYCQQNAEDSRTFGGGTKLEIKGQPKAAPSVTLFPPSSEELQANKATLVCLISDFYPGAVTVAWKADSSPVKAGVETTTPSKQSNNKYAASSYLSLTPEQWKSHRSYSCQVTHEGSTVEKTVAPTECS
heavy 2: not shown
light 2: not shown
notes: Bispecific trivalent (CODV-Fab) × Fab-IgG1 Fc; two IL13 sites, one IL4 site; also called IL13 × (IL13 × IL4); (anti-IL13 × anti-IL4) × anti-IL13
B5: Binding Protein 18 (bispecific antibody, human IgG1, kappa, lambda)
heavy 1: not shown
light 1: B4 light 1
heavy 2: not shown
light 2: not shown
notes: Bispecific trivalent (CODV-Fab) × Fab-IgG1 Fc; two IL13 sites, one IL4 site; also called IL13 × (IL4 × IL13); (anti-IL4 × anti-IL13) × anti-IL13
B6: Binding Protein 3 (other)
heavy 1: QVQLVQSGAEVKKPGSSVKVSCKASGYAFSSYWMNWVRQAPGQGLEWIGQIWPGDGDTNYNQKFKGRATLTADESTSTAYMELSSLRSEDTAVYYCARRETTTVGRYYYAMDYWGQGTTVTVSSASTKGPSVFPLAPCSRSTSESTAALGCLVKDYFPEPVTVSWNSGALTSGVHTFPAVLQSSGLYSLSSVVTVPSSSLGTKTYTCNVDHKPSNTKVDKRVESKYGPPCPPCPAPEFLGGPSVFLFPPKPKDTLMISRTPEVTCVVVDVSQEDPEVQFNWYVDGVEVHNAKTKPREEQFNSTYRVVSVLTVLHQDWLNGKEYKCKVSNKGLPSSIEKTISKAKGQPREPQVYTLPPCQEEMTKNQVSLWCLVKGFYPSDIAVEWESNGQPENNYKTTPPVLDSDGSFFLYSKLTVDKSRWQEGNVFSCSVMHEALHNHYTQKSLSLSLGK
light 1: DLVLTQSPASLAVSPGQRATITCKASQSVDYDGDSYLNWYQQKPGQPPKLLIYDASNLVSGVPARFSGSGSGTDFTLTINPVEANDTANYYCQQSTEDPWTFGQGTKLEIKRTVAAPSVFIFPPSDEQLKSGTASVVCLLNNFYPREAKVQWKVDNALQSGNSQESVTEQDSKDSTYSLSSTLTLSKADYEKHKVYACEVTHQGLSSPVTKSFNRGEC
heavy 2: B1 heavy 2
light 2: B1 light 2
notes: Trispecific antibody of four chains, IgG4: anti-CD19 Fab arm (knob) and CODV arm anti-CD28 x anti-CD3 (hole); also called anti-CD19×CD28×CD3 IgG4 trispecific antibody; CD19 × (CD28 × CD3)

The target of the first experiment is CD38 on human multiple myeloma cells (human, UniProt P28907 1-300). Nature of the experiment: cell-based or functional assay.
In the case of B1, the “EC50 (pM), antibody-mediated cell killing of RPMI8226 cells” value was 0.379 pM.

The next experiment addresses T1, recombinant human IL4. The experiment can be described thus: cell-based or functional assay.
B2: the “IL4 IC50 (HEK Blue reporter assay)” value is 0.00862 µg/mL.

On to B3, for which the “IL4 IC50 (HEK Blue reporter assay)” value stood at 0.00573 µg/mL.

B4: the “IL4 IC50 (HEK Blue reporter assay)” value is 0.013 µg/mL.

Regarding B5, the “IL4 IC50 (HEK Blue reporter assay)” value worked out at 0.0146 µg/mL.

The next experiment addresses T1, recombinant human IL4. Nature of the experiment: SPR (BIACORE 3000), antibody captured, human IL4 as analyte. On the technique in general: SPR reads the build-up and loss of mass on a sensor chip optically.
B2: the Kd – broadly, the equilibrium constant for the complex coming apart – turned out to be 2.4 pM; the “No. of ILs Bound” value came to 2; the “kDa Bound” value is 35 kDa; the koff (as a rule, the rate constant with which the complex falls apart) is 0.00076 s⁻¹. Moreover, the on-rate constant (kon) – broadly, a measure of how fast the partners come together – worked out at 3.16e+08 M⁻¹ s⁻¹.

In the case of B3, the Kd was found to be 4.65 pM, the “No. of ILs Bound” value was determined as 2, the “kDa Bound” value worked out at 34 kDa and the dissociation rate constant (koff) was 0.000385 s⁻¹. Besides, the kon stood at 8.27e+07 M⁻¹ s⁻¹.

Regarding B4, the Kd stood at 5.88 pM, the “No. of ILs Bound” value was found to be 1, the “kDa Bound” value came out at 17 kDa and the koff worked out at 0.00028 s⁻¹. Further, the kon was found to be 4.77e+07 M⁻¹ s⁻¹.

B5: the Kd is 10.2 pM, the “No. of ILs Bound” value is 1, the “kDa Bound” value worked out at 18 kDa and the koff was determined as 0.000359 s⁻¹. Also, the kon was 3.52e+07 M⁻¹ s⁻¹.

Another experiment concerns the target T2, human CD19 (ELISA antigen). The experiment can be described thus: ELISA on coated antigen, detection with HRP-conjugated anti-Fab secondary antibody, OD450. (An ELISA detects its analyte on a solid surface through an enzyme-linked reagent.)
Method: The coated plate was blocked using 5% skim milk+2% BSA in PBS for one hour at RT, followed by washing with PBS+0.25% Tween 20 three times (Aqua Max 400, Molecular Devices). Serial dilution of antibodies (trispecific and control Abs) were prepared and added onto the ELISA plates (100 μl/well in duplicate), incubated at RT for one hour, followed by washing 5 times with PBS+0.25% Tween 20.
The reaction was terminated by adding 50 μl 1M H₂SO₄, and OD₄₅₀ was measured using SpectraMax M5 (Molecular Devices) and analyzed using SoftMax Pro6.3 software (Molecular Devices). […] EC50 was calculated using the same software.
For B6, the binding result was “binds”.
